Experimental findings from the supplement of paper PMC9170038 are described below.

The test system of the data set is K4 kissing-loop RNA reporter. The experiment in a line: apparent KD of K4 kissing-loop reporter; higher = weaker reporter binding. Conditions: Eterna round: R107. On the procedure: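 RNA-MaP round R107: designed RNA switches with theophylline, tryptophan, arginine or FMN aptamers are transcribed on-chip within common flanks. They are titrated with a labelled K4 kissing-loop RNA reporter in RNA-MaP buffer (100 mM Tris pH 7.5, 80 mM KCl, 4 mM MgCl2), without ligand or with the indicated ligand. Median apparent KD per design.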

Where [1] appears, read: input ligand: theophylline 20 uM.
[2] abbreviates: input ligand: tryptophan 2.4 mM.
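Also: bound reporter read as fluorescence of individual clusters on recovered sequencing chips by microscopy, with normalized cluster intensities fitted with a binding model.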

As for “GACAGCCGGUCGGCCGCCACUUGGAGUGAUGUUCCGCGCGGCGGGCGCCGGAGGGCGUUAAGCCCAAGGACCGGGACCGGUAACG [Celeso]”, the “apparent KD of K4 kissing-loop reporter” value was 114 nM (input ligand: FMN 200 uM); 103 nM (input ligand: arginine 13.2 mM); 92.9 nM (input ligand: none); 114 nM under setting [1]; 104 nM under setting [2].
As to “CGCGCCCAGCCGGAUACCAGUGACCCGCUGGGAACCGCGGGCCCAGAGUGAUGUUCGGGACACCCUUGGCAGCCGCCUGGGCGAC [#2 Same State - Theophylline B Attempt #8 (HarryS)]”, the “apparent KD of K4 kissing-loop reporter” value is, setting by setting: (input ligand: FMN 200 uM) 993 nM; (input ligand: arginine 13.2 mM) 378 nM; (input ligand: none) 1130 nM; under setting [1], 525 nM; under setting [2], 509 nM.
As for “CGCCGUAAGGCGAGCGCUCCCACUCCGGAAGGAGCGCCCGAAAGGGCAGGUAGGUCGCCGGAGUGAUGUUCCGGUGGAGGGCUCG [#2 Exclusion - Arginine A Attempt #28 (Inspired by Omei)]”, the “apparent KD of K4 kissing-loop reporter” value (input ligand: FMN 200 uM) was 353 nM; the “apparent KD of K4 kissing-loop reporter” value (input ligand: arginine 13.2 mM) was determined as 261 nM; the “apparent KD of K4 kissing-loop reporter” value (input ligand: none) came out at 380 nM; the “apparent KD of K4 kissing-loop reporter” value under setting [1] amounted to 267 nM; the “apparent KD of K4 kissing-loop reporter” value under setting [2] turned out to be 330 nM.
As for “AGCAAUAUCACGGCCGCCACUGAAUAUUGUUUUUAUAUUUAUAAAUCUUGCCAGUGAUGUUGGUUCAGGACCGGGUGAGUUAAUA [JR_SSTryptoB_Sub004]”, the “apparent KD of K4 kissing-loop reporter” value stood at 573 nM (input ligand: FMN 200 uM); 603 nM (input ligand: arginine 13.2 mM); 783 nM (input ligand: none); 665 nM under setting [1]; 412 nM under setting [2].
For the sequence “AGAGUUAUGAGAGGAUAUGCGGCUAGUACUCAAAGAGUACUAGCAGCAGAGUGAUGUUCUGUGAAAGCAGAAGGUUCAUAACUCA [#06 K4 FMN B Same State]”, the “apparent KD of K4 kissing-loop reporter” value (input ligand: FMN 200 uM) worked out at 124 nM; the “apparent KD of K4 kissing-loop reporter” value (input ligand: arginine 13.2 mM) came to 668 nM; the “apparent KD of K4 kissing-loop reporter” value (input ligand: none) came to 627 nM; the “apparent KD of K4 kissing-loop reporter” value under setting [1] came to 563 nM; the “apparent KD of K4 kissing-loop reporter” value under setting [2] came to 641 nM.
“AUUAAUUUCAGAGGAUAUCGUUAUUUUUUUAAGUAUAAUCUAUUAUGCAGUGAUGUUGCUAUUAAUCGAGAAGGCUGAUUUAUAA [JR_ExcFMNB_Sub001]”: the “apparent KD of K4 kissing-loop reporter” value by setting is: (input ligand: FMN 200 uM) 114 nM; (input ligand: arginine 13.2 mM) 141 nM; (input ligand: none) 79.5 nM; under setting [1], 134 nM; under setting [2], 78.5 nM.
The like results for “CAAGCUCUCCAAGGAUAUGAUAUCGACCCGUCUUAGUGAUGUUAAGGCUGUAGAAAUUCACAUUGAUCAGAAGGUGGUACCCUCC [theeternabot_sameState_KL_FMN_B_8]” were, in that order, 317 nM, 194 nM, 256 nM, 351 nM and 239 nM.
The like results for “UGUCAUUGGUCGGCCGCCACUUCGUAUGAAGUGAUGUUUUGUAGAUUGUGUUGAAAGGUGUGGUGAAGGACCGGGACCGAUGACU [FiskerMod 23 - Jieux - Same State - Tryptophan B]” were, in that order, 898 nM, 623 nM, 1010 nM, 1050 nM and 769 nM.
For “AUAAUAUGAGUGAUGUUCAUGAAACCUGAAGGAGCGGACGAAAGUCCAGGUAGGUCGCAGGACUCCUUCAACAUGGGAGAGGGAG [KL-SSArg-A8 #analogue]” the same measures were 153 nM, 180 nM, 166 nM, 194 nM and 150 nM.
With “AAUAAAAGAUGUUUAGGAAAGAAAAUGGAAGGAGCGUGCGAAAGCACAGGUAGGUCGCCAGUGAUGUUGGAACCUGAGCAUCAAA [#SwitchBubble 15 #K4Late]”, the “apparent KD of K4 kissing-loop reporter” value runs as follows: (input ligand: FMN 200 uM) 827 nM; (input ligand: arginine 13.2 mM) 479 nM; (input ligand: none) 699 nM; under setting [1], 677 nM; under setting [2], 436 nM.
On to “AUUAUAUUGUGAAGGAGCGCGCAUAGUAGUGAUGUUACUAUGACAUAUCUUAUUUAAUUCUCGCAGGUAGGUCGCACAUUAUAUA [JR_Nu_ExcArginiB_Sub026]”, for which the “apparent KD of K4 kissing-loop reporter” value is, setting by setting: (input ligand: FMN 200 uM) 92.5 nM; (input ligand: arginine 13.2 mM) 64.8 nM; (input ligand: none) 79.7 nM; under setting [1], 65.5 nM; under setting [2], 71.8 nM.
For “CAUAGACAAGUGAUGUUUGUCAUAACCGAAGGAGCGUCUUUAAAGACAGGUAGGUCGCGGAUUAAUUAAGUUAUUAUUCUUUUUA [JR_SSArginiA_Sub018]” the same measures were 552 nM, 494 nM, 644 nM, 573 nM and 439 nM.
The like results for “GCCGUACGCAUGGAUACCAGCAAUAUGCUACGUUGUAGUAGUAUAACCAGUGAUGUUGGAUGCCCUUGGCAGCCAUGCGUACGGC” were, in that order, 736 nM, 673 nM, 897 nM, 349 nM and 855 nM.
Turning to “UAUGCUUGUGCUGAUACCAGUGUUAGUGAUGUUAGGACUGUCAGUAGGAUGCGUGCAUUUCACCCUUGGCAGCAGUAUCGCAGCA [theeternabot_exclusion_KL_Theo_B_48]”, the “apparent KD of K4 kissing-loop reporter” value reads like this: (input ligand: FMN 200 uM) 447 nM; (input ligand: arginine 13.2 mM) 295 nM; (input ligand: none) 351 nM; under setting [1], 426 nM; under setting [2], 387 nM.
Turning to “GUUGUAUACUGAAGGAGCGAGUAGUGGAAACAUAAACUCAUUGCGAGUGAUGUUCGCAGUACUCAGGUAGGUCGCAGUAAUCGUA [Exclusion Arginine B Gf 10]”, the “apparent KD of K4 kissing-loop reporter” value is 534 nM (input ligand: FMN 200 uM); 315 nM (input ligand: arginine 13.2 mM); 566 nM (input ligand: none); 453 nM under setting [1]; 456 nM under setting [2].
With “GCCUAGGCUCGAAAGAGCCUAGGCUUGUCUCAGGAUAUCUGGAAACAGAGAAGGGAGCUACUAGUGAUGUUAGGAAUUCCCUAAG”, the “apparent KD of K4 kissing-loop reporter” value came out at 149 nM (input ligand: FMN 200 uM); 122 nM (input ligand: arginine 13.2 mM); 112 nM (input ligand: none); 92.3 nM under setting [1]; 98 nM under setting [2].
